According to US20160046672A1, “STAPLING eIF4E INTERACTING PEPTIDES” (AGENCY FOR SCIENCE, TECHNOLOGY AND RESEARCH, priority 2013, published 2016):
Positions of bridges follow the written chain, without caps; N, C: chain ends. Non-standard residues stand in square brackets, D forms with d. Residues, ends and D or L forms follow the SMILES beside them. S5 = C=CCCC[C@](C)(N)C(=O)O; Abu = CC[C@H](N)C(=O)O; Aib = CC(C)(N)C(=O)O

Assays:
[1] = circular dichroism; conditions: 5 mM sodium phosphate; pH 7.0; ns °C; 0.5 or 2 mg/mL
[2] = Circular dichroism, percent α-helicity in solution; format: physicochemical; conditions: CD, 5 mM sodium phosphate buffer pH 7.0
Description: CD was measured on a JASCO J-810 spectropolarimeter, and spectra were either recorded with a quartz cuvette (Helmer) with a pathlength of 0.01 cm or 0.1 cm in 5 mM sodium phosphate buffer (pH 7.0). FUV CD spectra were recorded from 260 nm to 200 nm at a peptide concentration of either 2 mg/ml or 0.5 mg/ml, respectively. The CD signal was converted into mean residue ellipticity in units of degree·cm^2·dmol^−1·residue^−1. CD spectra were recorded at a data pitch of 0.2 nm at 50 nm min^−1, a response time of 2 s, and a bandwidth of […]. Once converted to mean residue ellipticity, percent α-helicity can be calculated with equation (1) and (2): […]

Row | Molecule | helicity [1] | Helicity (%) [2]
1 | CC(=O)N[C@@H](CCCCN)C(=O)N[C@@H](CCCCN)C(=O)N[C@@H](CCCNC(=N)N)C(=O)N[C@@H](Cc1ccc(O)cc1)C(=O)N[C@@H](CO)C(=O)N[C@@H](CCCNC(=N)N)C(=O)NC(C)(C)C(=O)N[C@@H](Cc1ccccc1)C(=O)N[C@@H](CC(C)C)C(=O)N[C@@H](CC(C)C)C(=O)NC(C)(C)C(N)=O (Ac-KKRYSR[Aib]FLL[Aib]-NH2) | 7% | 
2 | CC(=O)N[C@@H](CCCCN)C(=O)N[C@@H](CCCCN)C(=O)N[C@@H](CCCNC(=N)N)C(=O)N[C@@H](Cc1ccc(O)cc1)C(=O)N[C@@H](CO)C(=O)N[C@@H](CCCNC(=N)N)C(=O)N[C@@]1(C)CCCC=CCCC[C@@](C)(C(=O)N[C@@H](CC(C)C)C(N)=O)NC(=O)[C@H](CC(C)C)NC(=O)[C@H](CC(C)C)NC(=O)[C@H](CCC(N)=O)NC1=O (relative stereo) [sTIP-04, KKRYSR*QLL*L] |  | 63%
3 | CC[C@H](NC(=O)C(C)(C)NC(=O)[C@H](CC(C)C)NC(=O)[C@H](CC(C)C)NC(=O)[C@H](Cc1ccccc1)NC(=O)C(C)(C)NC(=O)[C@H](CCCNC(=N)N)NC(=O)[C@H](CO)NC(=O)[C@H](Cc1ccc(O)cc1)NC(=O)[C@H](CCCNC(=N)N)NC(=O)[C@H](CCCCN)NC(=O)[C@H](CCCCN)NC(C)=O)C(N)=O [TIP-01^F12&, KKRYSRXFLLX&] (Ac-KKRYSR[Aib]FLL[Aib][Abu]-NH2) | 11% | 11%
4 | Ac-KKRYSREFLLGF-NH2 [eIF4G^D5S, reference compound] | 0% | 0%
5 | CC(=O)N[C@@H](CCCCN)C(=O)N[C@@H](CCCCN)C(=O)N[C@@H](CCCNC(=N)N)C(=O)N[C@@H](Cc1ccc(O)cc1)C(=O)N[C@@H](CO)C(=O)N[C@@H](CCCNC(=N)N)C(=O)NC(C)(C)C(=O)N[C@@H](CCC(N)=O)C(=O)N[C@@H](CC(C)C)C(=O)N[C@@H](CC(C)C)C(=O)NC(C)(C)C(=O)N[C@@H](CC(C)C)C(N)=O [TIP-04, KKRYSRXQLLXL] | 4% | 4%
6 | CC(=O)N[C@@H](CCCCN)C(=O)N[C@@H](CCCCN)C(=O)N[C@@H](CCCNC(=N)N)C(=O)N[C@@H](Cc1ccc(O)cc1)C(=O)N[C@@H](CO)C(=O)N[C@@H](CCCNC(=N)N)C(=O)N[C@@]1(C)CCCC=CCCC[C@@](C)(C(N)=O)NC(=O)[C@H](CC(C)C)NC(=O)[C@H](CC(C)C)NC(=O)[C@H](Cc2ccccc2)NC1=O (Ac-KKRYSR[S5]FLL[S5]-NH2; staple 7-11) | 72% | 
7 | CC(=O)N[C@@H](CCCCN)C(=O)N[C@@H](CCCCN)C(=O)N[C@@H](CCCNC(=N)N)C(=O)N[C@@H](Cc1ccc(O)cc1)C(=O)N[C@@H](CO)C(=O)N[C@@H](CCCNC(=N)N)C(=O)N[C@@]1(C)CCCC=CCCC[C@@](C)(C(=O)N[C@@H](Cc2ccccc2)C(N)=O)NC(=O)[C@H](CC(C)C)NC(=O)[C@H](CC(C)C)NC(=O)[C@H](Cc2ccccc2)NC1=O (Ac-KKRYSR[S5]FLL[S5]F-NH2; staple 7-11) | 24% | 
8 | CC(=O)N[C@@H](CCCCN)C(=O)N[C@@H](CCCCN)C(=O)N[C@@H](CCCNC(=N)N)C(=O)N[C@@H](Cc1ccc(O)cc1)C(=O)N[C@@H](CO)C(=O)N[C@@H](CCCNC(=N)N)C(=O)NC(C)(C)C(=O)N[C@@H](C)C(=O)N[C@@H](CC(C)C)C(=O)N[C@@H](CC(C)C)C(=O)NC(C)(C)C(=O)N[C@@H](Cc1ccccc1)C(N)=O [TIP-01^F8A, KKRYSRXALLXF] (Ac-KKRYSR[Aib]ALL[Aib]F-NH2) | 10% | 10%
9 | CC(=O)N[C@@H](CCCCN)C(=O)N[C@@H](CCCCN)C(=O)N[C@@H](CCCNC(=N)N)C(=O)N[C@@H](Cc1ccc(O)cc1)C(=O)N[C@@H](CO)C(=O)N[C@@H](CCCNC(=N)N)C(=O)NC(C)(C)C(=O)N[C@@H](Cc1ccccc1)C(=O)N[C@@H](CC(C)C)C(=O)N[C@@H](CC(C)C)C(=O)NC(C)(C)C(=O)N[C@@H](Cc1ccccc1)C(N)=O (Ac-KKRYSR[Aib]FLL[Aib]F-NH2) | 2% | 
